Values quoted from earlier work as cited in article PMC4584479.
Where two headings read alike, the source gives them in different places.

Experiments:
[1] = target: IL-15Rβ/γc (Homo sapiens) (UniProt P14784)
[2] = target: IL-15Rβ/γc (Homo sapiens) (UniProt P14784); remark: listed apart in the source

UniProt P14784, sequence (P14784 27-240, chain 1 of 2): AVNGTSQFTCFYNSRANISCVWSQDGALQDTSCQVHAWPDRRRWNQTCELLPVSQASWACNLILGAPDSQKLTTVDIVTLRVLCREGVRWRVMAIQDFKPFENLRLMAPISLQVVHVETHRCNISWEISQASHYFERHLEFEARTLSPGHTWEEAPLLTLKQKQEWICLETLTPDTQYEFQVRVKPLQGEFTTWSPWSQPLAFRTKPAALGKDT
UniProt P14784, sequence (P31785 23-262, chain 2 of 2, further chain): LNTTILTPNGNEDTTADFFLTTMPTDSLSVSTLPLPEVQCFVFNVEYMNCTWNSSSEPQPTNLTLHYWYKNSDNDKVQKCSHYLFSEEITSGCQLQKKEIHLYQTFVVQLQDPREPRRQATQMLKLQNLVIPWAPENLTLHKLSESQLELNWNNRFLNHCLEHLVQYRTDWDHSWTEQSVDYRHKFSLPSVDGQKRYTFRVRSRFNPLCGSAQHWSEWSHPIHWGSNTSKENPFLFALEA

| Kd [1] [nM] | Kd [2] [nM] | Substance |
| --- | --- | --- |
| 13.5 | – | IL-15 (from UniProt P40933) |
| – | 0.78 | IL-15/IL-15Rα-sushi fusion protein (IL-15 hyperagonist) sushi domain of IL-15Rα fused to IL-15 (from UniProt P40933) |
